{
  "source": "patent US20100184658A1",
  "about": "(published 2010)",
  "assay_in_all_cases": "cell-based or functional assay",
  "key": {"[1]": {"molecular_target": "SYK Spleen tyrosine kinase (UniProt P43405 1-635, limits assumed)"}, "[2]": {"molecular_target": "CHEK2 (CHK2) (UniProt O96017 1-543, limits assumed)", "sequence (O96017 whole entry)": "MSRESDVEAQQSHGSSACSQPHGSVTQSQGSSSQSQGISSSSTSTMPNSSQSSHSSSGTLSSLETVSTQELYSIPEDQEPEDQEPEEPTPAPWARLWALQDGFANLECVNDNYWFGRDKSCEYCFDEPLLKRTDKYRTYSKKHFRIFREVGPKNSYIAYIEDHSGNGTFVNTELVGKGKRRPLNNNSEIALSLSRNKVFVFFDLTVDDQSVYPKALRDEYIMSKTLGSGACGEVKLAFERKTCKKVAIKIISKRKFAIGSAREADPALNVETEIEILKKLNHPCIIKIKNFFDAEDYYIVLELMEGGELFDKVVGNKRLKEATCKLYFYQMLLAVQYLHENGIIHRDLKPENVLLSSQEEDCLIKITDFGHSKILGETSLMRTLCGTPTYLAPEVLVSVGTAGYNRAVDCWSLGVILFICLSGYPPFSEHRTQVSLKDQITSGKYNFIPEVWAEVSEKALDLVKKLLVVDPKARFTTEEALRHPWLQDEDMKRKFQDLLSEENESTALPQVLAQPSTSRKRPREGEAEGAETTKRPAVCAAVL"}, "[3]": {"molecular_target": "CAMK2D (CaMKII delta) (UniProt Q13557 1-499, limits assumed)", "sequence (Q13557 whole entry, stated change not applied)": "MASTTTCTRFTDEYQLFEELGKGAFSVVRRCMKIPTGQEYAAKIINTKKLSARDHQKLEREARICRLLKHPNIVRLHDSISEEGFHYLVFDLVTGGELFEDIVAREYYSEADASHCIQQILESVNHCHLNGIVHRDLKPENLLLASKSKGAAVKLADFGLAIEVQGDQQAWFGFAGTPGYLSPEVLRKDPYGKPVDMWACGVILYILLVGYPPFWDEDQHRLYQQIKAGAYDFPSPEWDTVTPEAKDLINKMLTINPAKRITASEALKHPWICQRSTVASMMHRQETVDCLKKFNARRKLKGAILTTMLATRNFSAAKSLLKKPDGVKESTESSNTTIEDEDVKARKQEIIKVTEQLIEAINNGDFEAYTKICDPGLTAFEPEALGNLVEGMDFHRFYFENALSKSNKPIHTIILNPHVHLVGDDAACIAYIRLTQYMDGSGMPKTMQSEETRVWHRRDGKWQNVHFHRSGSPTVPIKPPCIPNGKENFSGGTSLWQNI"}, "[4]": {"molecular_target": "T1, STK4 (MST1) Serine/threonine kinase 4 (UniProt Q13043 1-487, limits assumed)", "T1 sequence (looked up)": "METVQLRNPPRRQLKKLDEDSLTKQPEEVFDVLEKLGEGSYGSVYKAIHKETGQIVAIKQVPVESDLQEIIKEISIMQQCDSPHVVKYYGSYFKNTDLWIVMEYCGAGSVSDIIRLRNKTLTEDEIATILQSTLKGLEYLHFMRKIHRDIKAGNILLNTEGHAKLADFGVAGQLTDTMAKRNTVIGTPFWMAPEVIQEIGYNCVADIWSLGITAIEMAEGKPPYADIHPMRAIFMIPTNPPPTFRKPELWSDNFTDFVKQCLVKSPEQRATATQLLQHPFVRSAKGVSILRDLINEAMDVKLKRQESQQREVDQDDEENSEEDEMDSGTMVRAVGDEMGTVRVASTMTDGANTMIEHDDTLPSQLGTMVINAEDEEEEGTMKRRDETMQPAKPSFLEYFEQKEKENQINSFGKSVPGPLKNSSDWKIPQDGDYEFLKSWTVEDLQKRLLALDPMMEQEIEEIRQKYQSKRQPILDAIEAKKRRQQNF"}, "[5]": {"molecular_target": "T2, PRKCZ (PKC zeta) (human (printed as (h)), UniProt Q05513 1-592, limits assumed)", "T2 sequence (looked up)": "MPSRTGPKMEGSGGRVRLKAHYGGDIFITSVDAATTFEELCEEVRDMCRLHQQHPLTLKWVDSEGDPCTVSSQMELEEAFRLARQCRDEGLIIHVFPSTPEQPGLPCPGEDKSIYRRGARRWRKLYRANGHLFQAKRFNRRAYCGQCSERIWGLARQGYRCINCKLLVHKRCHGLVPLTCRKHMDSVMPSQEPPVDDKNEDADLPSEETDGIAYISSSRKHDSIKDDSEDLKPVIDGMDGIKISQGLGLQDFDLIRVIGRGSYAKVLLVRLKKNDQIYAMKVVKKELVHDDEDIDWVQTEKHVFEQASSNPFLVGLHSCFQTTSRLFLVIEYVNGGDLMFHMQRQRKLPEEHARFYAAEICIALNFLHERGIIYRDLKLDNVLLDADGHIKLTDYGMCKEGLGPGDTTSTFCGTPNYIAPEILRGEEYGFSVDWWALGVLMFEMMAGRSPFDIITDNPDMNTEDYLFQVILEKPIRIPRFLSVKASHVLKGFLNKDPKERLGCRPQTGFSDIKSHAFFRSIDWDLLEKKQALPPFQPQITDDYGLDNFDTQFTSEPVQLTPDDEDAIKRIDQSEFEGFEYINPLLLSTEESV"}, "[6]": {"molecular_target": "MAPK1(h) (human (printed as (h)), UniProt P28482 1-360, limits assumed)", "sequence (P28482 whole entry)": "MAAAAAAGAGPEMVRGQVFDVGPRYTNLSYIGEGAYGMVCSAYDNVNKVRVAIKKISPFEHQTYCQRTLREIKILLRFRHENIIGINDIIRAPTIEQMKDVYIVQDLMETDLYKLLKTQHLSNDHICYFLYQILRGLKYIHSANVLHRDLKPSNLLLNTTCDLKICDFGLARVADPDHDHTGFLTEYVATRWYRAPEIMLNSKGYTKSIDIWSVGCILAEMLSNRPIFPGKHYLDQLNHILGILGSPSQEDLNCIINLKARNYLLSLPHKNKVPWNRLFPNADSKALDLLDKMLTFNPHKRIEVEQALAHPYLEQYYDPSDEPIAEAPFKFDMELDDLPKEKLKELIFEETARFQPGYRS"}, "[7]": {"molecular_target": "T3, SGK (SGK1) Serum/glucocorticoid regulated kinase (human (printed as (h)), UniProt O00141 60-431, limits assumed)", "T3 sequence (looked up)": "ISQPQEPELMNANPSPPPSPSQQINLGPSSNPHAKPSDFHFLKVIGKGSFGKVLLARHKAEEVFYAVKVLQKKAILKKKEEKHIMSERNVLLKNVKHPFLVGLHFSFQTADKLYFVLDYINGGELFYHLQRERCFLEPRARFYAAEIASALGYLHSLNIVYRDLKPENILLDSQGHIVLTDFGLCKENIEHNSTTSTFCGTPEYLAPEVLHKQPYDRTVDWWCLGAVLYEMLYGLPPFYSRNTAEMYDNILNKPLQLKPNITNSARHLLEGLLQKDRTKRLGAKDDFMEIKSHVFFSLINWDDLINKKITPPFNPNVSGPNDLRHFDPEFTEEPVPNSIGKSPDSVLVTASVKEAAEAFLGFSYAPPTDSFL"}, "[8]": {"molecular_target": "PKA(h) (human (printed as (h)), UniProt P17612 1-351)"}, "[9]": {"molecular_target": "IR (h) (human (printed as (h)), UniProt P06213 1005-1310, limits assumed)", "sequence (P06213 1005-1310 limits assumed)": "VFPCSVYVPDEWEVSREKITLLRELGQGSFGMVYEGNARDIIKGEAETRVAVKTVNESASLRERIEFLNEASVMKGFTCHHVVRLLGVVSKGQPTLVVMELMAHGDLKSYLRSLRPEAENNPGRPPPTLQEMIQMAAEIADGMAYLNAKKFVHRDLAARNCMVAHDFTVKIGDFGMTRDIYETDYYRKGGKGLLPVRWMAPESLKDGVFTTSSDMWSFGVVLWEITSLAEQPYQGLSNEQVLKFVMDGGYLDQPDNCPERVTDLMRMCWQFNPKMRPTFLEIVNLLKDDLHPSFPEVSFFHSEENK"}, "[10]": {"molecular_target": "T4, PDK1 (human (printed as (h)), UniProt O15530 1-556, limits assumed)", "T4 sequence (looked up)": "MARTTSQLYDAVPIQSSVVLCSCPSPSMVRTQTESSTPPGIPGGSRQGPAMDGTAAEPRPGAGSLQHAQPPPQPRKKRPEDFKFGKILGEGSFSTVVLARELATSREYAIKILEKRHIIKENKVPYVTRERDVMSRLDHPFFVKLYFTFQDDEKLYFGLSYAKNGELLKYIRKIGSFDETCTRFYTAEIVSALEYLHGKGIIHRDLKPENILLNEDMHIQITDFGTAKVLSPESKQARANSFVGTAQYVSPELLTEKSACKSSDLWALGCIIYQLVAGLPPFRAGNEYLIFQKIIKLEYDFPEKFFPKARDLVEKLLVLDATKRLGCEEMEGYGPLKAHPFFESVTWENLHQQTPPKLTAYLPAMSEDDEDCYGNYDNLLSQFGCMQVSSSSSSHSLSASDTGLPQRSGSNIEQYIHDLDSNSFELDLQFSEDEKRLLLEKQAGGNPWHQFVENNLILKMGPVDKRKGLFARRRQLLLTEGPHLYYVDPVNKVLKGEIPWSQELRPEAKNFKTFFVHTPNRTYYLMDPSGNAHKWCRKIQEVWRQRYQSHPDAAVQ"}, "[11]": {"molecular_target": "AKT2 (PKB beta) (human (printed as (h)), UniProt P31751 1-481, limits assumed)", "sequence (P31751 whole entry)": "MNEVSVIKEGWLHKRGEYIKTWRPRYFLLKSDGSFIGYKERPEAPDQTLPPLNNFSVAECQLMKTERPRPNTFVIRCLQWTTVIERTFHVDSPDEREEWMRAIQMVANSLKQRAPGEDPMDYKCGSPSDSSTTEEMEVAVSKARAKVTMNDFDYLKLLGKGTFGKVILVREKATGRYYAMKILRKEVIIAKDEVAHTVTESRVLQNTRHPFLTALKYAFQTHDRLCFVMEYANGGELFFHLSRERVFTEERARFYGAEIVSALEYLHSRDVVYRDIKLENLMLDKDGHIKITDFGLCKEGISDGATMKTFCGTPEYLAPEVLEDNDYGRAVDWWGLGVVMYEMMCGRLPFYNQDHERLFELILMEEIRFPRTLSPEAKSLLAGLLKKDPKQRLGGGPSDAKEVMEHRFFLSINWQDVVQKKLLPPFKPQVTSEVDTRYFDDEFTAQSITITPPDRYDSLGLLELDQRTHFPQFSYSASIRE"}, "[12]": {"molecular_target": "MAPK2(h) (human (printed as (h)), UniProt P28482 1-360)", "sequence (P28482 whole entry)": "as the sequence (P28482 whole entry) above"}},
  "data": [
    {"binder": "SGRPPMIVWFNRPFLIAVSHTHGQTILFMAKVINPVGA", "note": "[D3 peptide]", "values": [
      {"measurement": "% Inhibition mean", "setting": "[1]", "result": 54, "unit": "%"},
      {"measurement": "% Inhibition mean", "setting": "[2]", "result": 62.1, "unit": "%"},
      {"measurement": "% Inhibition mean", "setting": "[3]", "result": 72.5, "unit": "%"},
      {"measurement": "% Inhibition mean", "setting": "[4]", "result": 99, "unit": "%"},
      {"measurement": "D3 at 0.1 µM % activity", "setting": "[5]", "result": 95, "unit": "%"},
      {"measurement": "D3 at 1 µm % activity", "setting": "[5]", "result": 42, "unit": "%"},
      {"measurement": "IC50", "setting": "[5]", "result": 1040, "unit": "nM"},
      {"measurement": "D3 at 0.1 µM % activity", "setting": "[6]", "result": 86, "unit": "%"},
      {"measurement": "D3 at 1 µm % activity", "setting": "[6]", "result": 92, "unit": "%"},
      {"measurement": "D3 at 0.1 µM % activity", "setting": "[7]", "result": 74, "unit": "%"},
      {"measurement": "D3 at 1 µm % activity", "setting": "[7]", "result": 5, "unit": "%"},
      {"measurement": "IC50", "setting": "[7]", "result": 325, "unit": "nM"},
      {"measurement": "D3 at 0.1 µM % activity", "setting": "[8]", "result": 115, "unit": "%"},
      {"measurement": "D3 at 1 µm % activity", "setting": "[8]", "result": 105, "unit": "%"},
      {"measurement": "D3 at 0.1 µM % activity", "setting": "[9]", "result": 96, "unit": "%"},
      {"measurement": "D3 at 1 µm % activity", "setting": "[9]", "result": 103, "unit": "%"},
      {"measurement": "D3 at 0.1 µM % activity", "setting": "[10]", "result": 98, "unit": "%"},
      {"measurement": "D3 at 1 µm % activity", "setting": "[10]", "result": 108, "unit": "%"},
      {"measurement": "D3 at 0.1 µM % activity", "setting": "[11]", "result": 63, "unit": "%"},
      {"measurement": "D3 at 1 µm % activity", "setting": "[11]", "result": 12, "unit": "%"},
      {"measurement": "IC50", "setting": "[11]", "result": 448, "unit": "nM"},
      {"measurement": "D3 at 0.1 µM % activity", "setting": "[12]", "result": 96, "unit": "%"},
      {"measurement": "D3 at 1 µm % activity", "setting": "[12]", "result": 96, "unit": "%"}
    ]}
  ]
}
